The chains are these.
T1: FcγRIIa R (extracellular domain, C-terminal His tag) (human, UniProt P12318 34-217)
T1 construct: extracellular domain; also called FcgRIIa R type; 2aR; not shown: His tag attached to the C terminus
T1 sequence (looked up): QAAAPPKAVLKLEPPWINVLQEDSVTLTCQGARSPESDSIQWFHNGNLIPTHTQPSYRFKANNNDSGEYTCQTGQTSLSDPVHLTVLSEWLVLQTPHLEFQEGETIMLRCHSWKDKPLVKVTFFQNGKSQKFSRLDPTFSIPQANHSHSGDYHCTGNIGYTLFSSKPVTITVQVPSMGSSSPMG

T2: FcγRIIb (extracellular domain, C-terminal His tag) (human, UniProt P31994 43-217)
T2 construct: extracellular domain; also called FcgRIIb; 2b; not shown: His tag attached to the C terminus
T2 sequence (looked up): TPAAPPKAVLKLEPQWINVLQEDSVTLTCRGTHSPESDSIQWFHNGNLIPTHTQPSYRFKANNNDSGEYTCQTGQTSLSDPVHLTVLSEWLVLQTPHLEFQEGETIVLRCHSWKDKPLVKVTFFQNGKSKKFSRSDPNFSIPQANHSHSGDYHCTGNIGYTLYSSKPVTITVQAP

B1: GpH7-A5/GpH7-B3 variant D265_01G/GpL16-k0 (antibody, human IgG1, kappa)
heavy 1: not shown
heavy 2: not shown
light: DIVMTQSPLSLPVTPGEPASISCQASESLVHSNRNTYLHWYLQKPGQSPQLLIYKVSNRFSGVPDRFSGSGSGTDFTLKISRVEAEDVGVYYCSQNTHVPPTFGQGTKVEIERTVAAPSVFIFPPSDEQLKSGTASVVCLLNNFYPREAKVQWKVDNALQSGNSQESVTEQDSKDSTYSLSSTLTLSKADYEKHKVYACEVTHQGLSSPVTKSFNRGEC
notes: Heterodimerized anti-glypican-3 IgG1; alteration in only one H chain (GpH7-B3 side); also called He Ab
B2: GpH7-A5/GpH7-B3 variant S239_11K/GpL16-k0 (antibody, human IgG1, kappa)
heavy 1: not shown
heavy 2: not shown
light: B1 light
notes: as for B1
B3: GpH7-A5/GpH7-B3 variant D265_06M/GpL16-k0 (antibody, human IgG1, kappa)
heavy 1: not shown
heavy 2: not shown
light: B1 light
notes: as for B1
B4: GpH7-A5/GpH7-B3 variant P238_18N/GpL16-k0 (antibody, human IgG1, kappa)
heavy 1: not shown
heavy 2: not shown
light: B1 light
notes: as for B1
B5: GpH7-A5/GpH7-B3 variant D265_03V/GpL16-k0 (antibody, human IgG1, kappa)
heavy 1: not shown
heavy 2: not shown
light: B1 light
notes: as for B1
B6: GpH7-A5/GpH7-B3 variant D265_08L/GpL16-k0 (antibody, human IgG1, kappa)
heavy 1: not shown
heavy 2: not shown
light: B1 light
notes: as for B1
B7: GpH7-A5/GpH7-B3 variant P238_14T/GpL16-k0 (antibody, human IgG1, kappa)
heavy 1: not shown
heavy 2: not shown
light: B1 light
notes: as for B1
B8: GpH7-A5/GpH7-B3 variant D265_02A/GpL16-k0 (antibody, human IgG1, kappa)
heavy 1: not shown
heavy 2: not shown
light: B1 light
notes: as for B1
B9: GpH7-A5/GpH7-B3 variant P238_13S/GpL16-k0 (antibody, human IgG1, kappa)
heavy 1: not shown
heavy 2: not shown
light: B1 light
notes: as for B1
B10: GpH7-A5/GpH7-B3 variant P238_11K/GpL16-k0 (antibody, human IgG1, kappa)
heavy 1: not shown
heavy 2: not shown
light: B1 light
notes: as for B1
B11: GpH7-A5/GpH7-B3 variant D265_07I/GpL16-k0 (antibody, human IgG1, kappa)
heavy 1: not shown
heavy 2: not shown
light: B1 light
notes: as for B1
B12: GpH7-A5/GpH7-B3 variant S239_04F/GpL16-k0 (antibody, human IgG1, kappa)
heavy 1: not shown
heavy 2: not shown
light: B1 light
notes: Heterodimerized anti-glypican-3 IgG1; also called He Ab
B13: GpH7-A5/GpH7-B3 variant D265_04F/GpL16-k0 (antibody, human IgG1, kappa)
heavy 1: not shown
heavy 2: not shown
light: B1 light
notes: as for B1
B14: GpH7-A5/GpH7-B3 variant P238_12R/GpL16-k0 (antibody, human IgG1, kappa)
heavy 1: not shown
heavy 2: not shown
light: B1 light
notes: as for B1

The first test concerns the target T1, FcγRIIa R (extracellular domain, …). Briefly: ratio of He/Con_2aR to He/Con_2b (FcγRIIb); SPR relative binding. The procedure:
(§1) The heterodimerized antibodies He Abs in which one of the H chains was introduced with an alteration were assayed for their binding activities to each activating FcγR and inhibitory FcγR according to the method described in Example 4. […] The activating FcγRs in FIGS. 26, 27, 28, and 29 are FcγRIa, FcγRIIa (R), FcγRIIa (H), and FcγRIIIa, respectively.
(§2) Analysis of interaction between objective antibody and the FcγR was carried out using Biacore T100 (GE Healthcare). HBS-EP+ (GE Healthcare) was used as the running buffer, and the measurement temperature was set to 25° C. Chips produced by immobilizing the antigen peptide by the amine coupling method to a Series S Sencor Chip CM5 (GE Healthcare), or alternatively, chips produced by allowing preliminarily biotinylated antigen peptides to interact with and immobilize onto a Series S Sensor Chip SA (certified) (GE Healthcare) were used. Antibodies of interest were captured onto an antigen peptide-immobilized chip, and allowed to interact to each FcγR diluted with running buffer. To regenerate and repeatedly use the chip, the antibodies captured on the chip were washed off by reacting 10 mM glycine-HCl, pH 1.5.
Regarding B1, the “He_2aR/2b (IIaR/IIb)” value worked out at 1.49.
B2: the “He_2aR/2b (IIaR/IIb)” value was 1.96.
On the same count and under the same terms, for B3 the value was 1.58; for B4, 1.26; for B5, 1.8.
For the molecule B6, the “He_2aR/2b (IIaR/IIb)” value is 1.46.
Still for that read-out and setting: for B7 the value was 1.44; for B8, 1.71.
Same read-out and setting: for B9 the value was 1.26; for B10, 2.03.
The same measure, in the same setting: for B11 the value was 2.57; for B12, 1.24; for B13, 1.79.
Regarding B14, the “He_2aR/2b (IIaR/IIb)” value stood at 1.57.

For a further test the target is unchanged. Briefly: SPR (Biacore), antibody captured on antigen-peptide chip, FcγR as analyte; relative binding amount. As for the experimental part: as §1, §2
Background: Surface plasmon resonance follows binding to a sensor surface in real time, without labels.
As to B1, the He/Con_2aR is 24.1 % of control (GpH7-A5/GpH7-B3/GpL16-k0 = 100).
As to B2, the He/Con_2aR is 48.5 % of control (GpH7-A5/GpH7-B3/GpL16-k0 = 100).
Still for that read-out and setting: for B3 the value was 15.8 % of control (GpH7-A5/GpH7-B3/GpL16-k0 = 100).
Same read-out and setting: for B4 the value was 91.9 % of control (GpH7-A5/GpH7-B3/GpL16-k0 = 100).
On the same count and under the same terms, for B5 the value was 5.8 % of control (GpH7-A5/GpH7-B3/GpL16-k0 = 100).
As for B6, the He/Con_2aR is 6.6 % of control (GpH7-A5/GpH7-B3/GpL16-k0 = 100).
Turning to B7, the He/Con_2aR was 73.1 % of control (GpH7-A5/GpH7-B3/GpL16-k0 = 100).
Still for that read-out and setting: for B8 the value was 33.9 % of control (GpH7-A5/GpH7-B3/GpL16-k0 = 100).
On to B9, for which the He/Con_2aR was 88.9 % of control (GpH7-A5/GpH7-B3/GpL16-k0 = 100).
Still for that read-out and setting: for B10 the value was 36.9 % of control (GpH7-A5/GpH7-B3/GpL16-k0 = 100); for B11, 3.4 % of control (GpH7-A5/GpH7-B3/GpL16-k0 = 100); for B12, 54.8 % of control (GpH7-A5/GpH7-B3/GpL16-k0 = 100).
Still for that read-out and setting: for B13 the value was 5.6 % of control (GpH7-A5/GpH7-B3/GpL16-k0 = 100).
With B14, the He/Con_2aR is 80.5 % of control (GpH7-A5/GpH7-B3/GpL16-k0 = 100).

The next test deals with T2, FcγRIIb (extracellular domain, …). Described as above. The procedure:
as §1, §2
For B1, the He/Con_2b was 16.1 % of control (GpH7-A5/GpH7-B3/GpL16-k0 = 100).
Same read-out and setting: for B2 the value was 24.7 % of control (GpH7-A5/GpH7-B3/GpL16-k0 = 100).
With B3, the He/Con_2b is 10 % of control (GpH7-A5/GpH7-B3/GpL16-k0 = 100).
The same measure, in the same setting: for B4 the value was 73.2 % of control (GpH7-A5/GpH7-B3/GpL16-k0 = 100); for B5, 3.2 % of control (GpH7-A5/GpH7-B3/GpL16-k0 = 100).
For the molecule B6, the He/Con_2b is 4.6 % of control (GpH7-A5/GpH7-B3/GpL16-k0 = 100).
Same read-out and setting: for B7 the value was 50.7 % of control (GpH7-A5/GpH7-B3/GpL16-k0 = 100); for B8, 19.9 % of control (GpH7-A5/GpH7-B3/GpL16-k0 = 100).
On to B9, for which the He/Con_2b is 70.4 % of control (GpH7-A5/GpH7-B3/GpL16-k0 = 100).
On the same count and under the same terms, for B10 the value was 18.1 % of control (GpH7-A5/GpH7-B3/GpL16-k0 = 100).
With B11, the He/Con_2b is 1.3 % of control (GpH7-A5/GpH7-B3/GpL16-k0 = 100).
As for B12, the He/Con_2b is 44.1 % of control (GpH7-A5/GpH7-B3/GpL16-k0 = 100).
The same measure, in the same setting: for B13 the value was 3.2 % of control (GpH7-A5/GpH7-B3/GpL16-k0 = 100).
On to B14, for which the He/Con_2b was 51.4 % of control (GpH7-A5/GpH7-B3/GpL16-k0 = 100).

(Values after US20180155451A1 (published 2018).)
